Here are results for one molecule from patent US20230374140A1 (Memorial Sloan Kettering, published 2023).

Assay [1] deals with T1, … / HLA-A*02:01 complex (human).
T1 construct: whole, on cells; On pulsed T2 cells; also pulled down from BV173 lysate (HLA-A*02)
Nature of the assay: immunopurification from BV173 cell lysate and LC-MS/MS, relative quantitation.
Description: (§1) 200M BV173 cells were lysed with 1% CHAPS, incubated for 1h in the cold room and spun down at 20,000 g for 50 min.

The target in assay [2] is T2, NC3 peptide … / HLA-A*02:01 complex (human).
T2 construct: whole, on cells; On pulsed T2 cells; also pulled down from BV173 lysate (HLA-A*02)
The assay is described as above.
Description: as §1

Assay [3] deals with T3, … / HLA-A*02:01 complex (human).
T3 construct: whole, on cells; On pulsed T2 cells; also pulled down from BV173 lysate (HLA-A*02)
The description is as above. The source holds these as a separate data set.
Description: as §1

In assay [4] the target is T4, NC1 peptide … / HLA-A*02:01 complex (human).
T4 construct: whole, on cells; On pulsed T2 cells; also pulled down from BV173 lysate (HLA-A*02) and presented on JMN cells
The assay is described as above.
Description: as §1

Assay [5] concerns the target T5, NDC80 derived peptide … / HLA-A*02:01 complex (human).
T5 construct: whole, on cells; On pulsed T2 cells
Nature of the assay: flow cytometry, antibody on pulsed T2 cells. (Flow cytometry measures light scatter and fluorescence of single cells or particles in a stream.)

Assay [6] has as its target T6, NDC80 derived peptide … / HLA-A*02:01 complex (human).
T6 construct: whole, on cells; On pulsed T2 cells
In words: flow cytometry, antibody on pulsed T2 cells. This is another data set of the same source.

B1: TCR mimic antibody clone 1 (mIgG1 clone 1 antibody) (antibody, V domains shown)
VH: EVQLVQSGAEVKKPGESLKISCEASGYSFSSNWIAWVRQRPGKGLEWMGIIYPGDSDTRYSPSFQGQVTMSADMSISTAYLQWSSLKASDTAMYYCARFAGPGMWSYGFDYWGQGTLVTVSS
VL: DIQLTQSPSSLSASVGDRVTITCRASQGIRNDLGWYQQKPGKAPKLMIYAASSLQSGVPSRFSGSGSGTDFTLTISSLQPEDFATYYCLQDYDYPLTFGGGTKLEIKR
notes: also called NDC80 clone 1 mAb; mouse version of NDC80 clone 1 mAb
Turning to B1, the “fold lower MS signal intensity than …” value in the assay with … / HLA-A*02:01 complex [1] was ≥ 3 fold; in assay [2] it was ≥ 3 fold; in the assay with … / HLA-A*02:01 complex [3] it was ≥ 3 fold; in assay [4] it was 3 fold. For the same molecule, the binding result in assay [5] and in assay [6] was “no binding” in each case.
